The source of these data is article PMC10439943, “SCF^RMF mediates degradation of the meiosis-specific recombinase DMC1” (Nature Communications, 2023).

What all share (assay): pull-down; 2 µg of each GST-, HIS- or MBP-tagged protein mixed in 50 mM Tris-HCl pH 7.4, 150 mM NaCl, 25 mM imidazole, 0.5% NP-40, 4 °C 4 h; HIS-tagged protein captured on Ni-NTA HIS Bind Resin; western blot
Conditions in all cases: both partners purified
A general note: Immunoblotting shows a protein as a band on a membrane.

One experiment deals with T1, MBP-RMF1 (Arabidopsis thaliana, UniProt Q9M365 1-359).
T1 construct: RMF1, F-box protein, Arabidopsis thaliana, AGI AT3G61730; CDS cloned into pMAL-c5X; also called AT3G61730; source: E. coli Rosetta (DE3) or BL21 (DE3) pLysS, purified (Amylose Resin); not shown: MBP, N-terminal, kept
T1 sequence (looked up): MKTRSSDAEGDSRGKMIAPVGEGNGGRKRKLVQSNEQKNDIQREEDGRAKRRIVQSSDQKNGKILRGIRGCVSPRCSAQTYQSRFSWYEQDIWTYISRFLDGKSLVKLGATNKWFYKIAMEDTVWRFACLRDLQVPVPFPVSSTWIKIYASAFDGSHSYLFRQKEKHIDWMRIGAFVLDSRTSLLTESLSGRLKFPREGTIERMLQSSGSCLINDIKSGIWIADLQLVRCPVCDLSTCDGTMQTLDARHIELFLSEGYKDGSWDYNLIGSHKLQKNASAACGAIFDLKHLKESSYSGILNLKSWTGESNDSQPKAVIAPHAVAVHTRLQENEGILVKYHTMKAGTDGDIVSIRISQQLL

The target of the next experiment is T2, MBP-RMF2 (Arabidopsis thaliana, UniProt Q9FGB8 1-355).
T2 construct: RMF2, F-box protein, Arabidopsis thaliana, AGI AT5G36000; CDS cloned into pMAL-c5X; also called AT5G36000; source: E. coli Rosetta (DE3) or BL21 (DE3) pLysS, purified (Amylose Resin); not shown: MBP, N-terminal, kept
T2 sequence (looked up): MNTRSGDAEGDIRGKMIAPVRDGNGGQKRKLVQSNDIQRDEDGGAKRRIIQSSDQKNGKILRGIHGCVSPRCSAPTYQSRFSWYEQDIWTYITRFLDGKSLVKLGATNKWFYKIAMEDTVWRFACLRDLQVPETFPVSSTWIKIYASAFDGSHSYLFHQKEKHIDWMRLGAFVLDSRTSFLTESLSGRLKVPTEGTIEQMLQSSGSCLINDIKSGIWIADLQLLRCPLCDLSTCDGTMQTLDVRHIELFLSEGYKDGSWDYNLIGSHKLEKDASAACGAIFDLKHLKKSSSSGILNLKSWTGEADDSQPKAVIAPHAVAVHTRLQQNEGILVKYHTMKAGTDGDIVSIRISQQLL

The next experiment concerns the target T3, SUMO-HIS-RMF1 (Arabidopsis thaliana, UniProt Q9M365 1-359).
T3 construct: RMF1, F-box protein, Arabidopsis thaliana, AGI AT3G61730; CDS cloned into pSUMO (on pET28a); also called AT3G61730; not shown: SUMO, N-terminal, kept; HIS, N-terminal, kept
T3 sequence (looked up): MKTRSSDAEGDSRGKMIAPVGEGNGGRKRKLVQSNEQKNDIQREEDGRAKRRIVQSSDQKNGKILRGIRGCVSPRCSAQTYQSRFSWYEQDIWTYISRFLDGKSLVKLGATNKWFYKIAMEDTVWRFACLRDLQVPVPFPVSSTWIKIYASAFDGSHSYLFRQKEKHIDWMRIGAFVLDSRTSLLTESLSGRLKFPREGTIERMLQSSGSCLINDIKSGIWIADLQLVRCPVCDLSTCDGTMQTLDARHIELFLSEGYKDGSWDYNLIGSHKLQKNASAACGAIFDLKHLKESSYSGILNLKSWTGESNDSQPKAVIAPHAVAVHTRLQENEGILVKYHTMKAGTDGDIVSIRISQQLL

In the next experiment the target is T4, SUMO-HIS-RMF2 (Arabidopsis thaliana, UniProt Q9FGB8 1-355).
T4 construct: RMF2, F-box protein, Arabidopsis thaliana, AGI AT5G36000; CDS cloned into pSUMO (on pET28a); also called AT5G36000; not shown: SUMO, N-terminal, kept; HIS, N-terminal, kept
T4 sequence (looked up): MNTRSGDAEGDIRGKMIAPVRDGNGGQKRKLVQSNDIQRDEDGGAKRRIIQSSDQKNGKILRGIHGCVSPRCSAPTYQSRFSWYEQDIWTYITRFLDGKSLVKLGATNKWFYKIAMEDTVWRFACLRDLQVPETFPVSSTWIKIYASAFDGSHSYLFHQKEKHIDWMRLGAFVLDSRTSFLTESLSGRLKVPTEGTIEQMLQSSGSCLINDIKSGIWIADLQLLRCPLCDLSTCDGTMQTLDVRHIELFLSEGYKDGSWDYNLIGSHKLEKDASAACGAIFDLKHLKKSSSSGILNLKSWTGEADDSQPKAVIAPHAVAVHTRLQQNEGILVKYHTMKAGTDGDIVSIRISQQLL

B1: SUMO-HIS-DMC1 (natural protein, Arabidopsis thaliana, UniProt Q39009 1-344, looked up)
chain: MMASLKAEETSQMQLVEREENDEDEDLFEMIDKLIAQGINAGDVKKLQEAGIHTCNGLMMHTKKNLTGIKGLSEAKVDKICEAAEKIVNFGYMTGSDALIKRKSVVKITTGCQALDDLLGGGIETSAITEAFGEFRSGKTQLAHTLCVTTQLPTNMKGGNGKVAYIDTEGTFRPDRIVPIAERFGMDPGAVLDNIIYARAYTYEHQYNLLLGLAAKMSEEPFRILIVDSIIALFRVDFTGRGELADRQQKLAQMLSRLIKIAEEFNVAVYMTNQVIADPGGGMFISDPKKPAGGHVLAHAATIRLLFRKGKGDTRVCKVYDAPNLAEAEASFQITQGGIADAKD
notes: DMC1, meiosis-specific RecA-family recombinase, Arabidopsis thaliana, AGI At3G22880; CDS cloned into pSUMO (on pET28a); also called At3G22880; not shown: SUMO, N-terminal, kept; HIS, N-terminal, kept
B1: the binding result with MBP-RMF1 and with MBP-RMF2 was “binds” each time.

B2: SUMO-HIS-DMC1-6KR (natural protein, Arabidopsis thaliana, UniProt Q39009 1-344, looked up)
chain: MMASLKAEETSQMQLVEREENDEDEDLFEMIDKLIAQGINAGDVRRLQEAGIHTCNGLMMHTKKNLTGIRGLSEAKVDKICEAAEKIVNFGYMTGSDALIRRKSVVKITTGCQALDDLLGGGIETSAITEAFGEFRSGKTQLAHTLCVTTQLPTNMKGGNGRVAYIDTEGTFRPDRIVPIAERFGMDPGAVLDNIIYARAYTYEHQYNLLLGLAAKMSEEPFRILIVDSIIALFRVDFTGRGELADRQQKLAQMLSRLIKIAEEFNVAVYMTNQVIADPGGGMFISDPKRPAGGHVLAHAATIRLLFRKGKGDTRVCKVYDAPNLAEAEASFQITQGGIADAKD
notes: DMC1, Arabidopsis thaliana, AGI At3G22880; CDS with all six lysines K45, K46, K70, K101, K162 and K290 changed to arginine, cloned into pSUMO (on pET28a); not shown: SUMO, N-terminal, kept; HIS, N-terminal, kept
With B2, the binding result in the experiment with MBP-RMF1 and with MBP-RMF2 was “binds” in each case.

B3: GST-ASK1 (natural protein, Arabidopsis thaliana, UniProt Q39255 1-160, looked up)
chain: MSAKKIVLKSSDGESFEVEEAVALESQTIAHMVEDDCVDNGVPLPNVTSKILAKVIEYCKRHVEAAASKAEAVEGAATSDDDLKAWDADFMKIDQATLFELILAANYLNIKNLLDLTCQTVADMIKGKTPEEIRTTFNIKNDFTPEEEEEVRRENQWAFE
notes: ASK1 (Arabidopsis Skp1-like1), Arabidopsis thaliana, AGI AT1G75950; CDS cloned into pGEX 4T-1; also called AT1G75950; not shown: GST, N-terminal, kept
Regarding B3, the binding result in the experiment with SUMO-HIS-RMF1 and with SUMO-HIS-RMF2 was “binds” in each case.
